Assay results published in patent US11278600B2, “Human alpha-galactosidase variants” (Codexis, Inc., priority 2014, dated 2022).

Experiments:
Type in all cases: biochemical
[1] = HTP-analysis of supernatants pretreated with bovine serum (MUGal hydrolysis); settings: activity of the variant/activity of Rd2BB (SEQ ID NO: 10), yeast culture supernatant
Method: Yeast (INVSc1) cells transformed with vectors expressing GLA and GLA variants using the lithium acetate method were selected on SD-Ura agar plates. After 72 h incubation at 30° C. colonies were placed into the wells of Axygen® 1.1 ml 96-well deep well plates filled with 200 μl/well SD-Ura broth (2 g/L SD-Ura, 6.8 g/L yeast nitrogen base without amino acids [Sigma Aldrich]), 3.06 g/L sodium dihydrogen phosphate, 0.804 g/L disodium hydrogen phosphate, pH 6.0 supplemented with 6% glucose. The cells were allowed to grow for 20-24 hours in a Kuhner shaker (250 rpm, 30° C., and 85% relative humidity). Overnight culture samples (20 μL) were transferred into Corning Costar® 96-well deep plates filled with 380 µL of SD-ura broth supplemented with 2% glucose. The plates were incubated for 66-84 h in a Kuhner shaker (250 rpm, 30° C., and 85% relative humidity). The cells were then pelleted (4000 rpm×20 min), and the supernatants isolated and stored at 4° C. prior to analysis.
GLA variants were challenged with bovine serum to simulate the conditions the variants encounter following infusion into a patient. First, 20 μL of yeast culture supernatant and 80 μL, of bovine serum were added to the wells of a 96-well round bottom plate. The plates were sealed and incubated at 37° C. for 1 h. For the assay, 50 μL of serum-challenged sample was mixed with 25 μL, of 1 M citrate buffer pH 4.3 and 25 μL, of 4 mM MUGal in McIlvaine buffer pH 4.8. The reactions were mixed briefly and incubated at 37° C. for 180 minutes, prior to quenching with 100 μL, of 1 M sodium carbonate. Hydrolysis was analyzed using a SpectraMax® M2 microplate reader monitoring fluorescence (Ex. 355 nm, Em. 448 nm).

[2] = HTP-analysis of supernatants pretreated with base (MUGal hydrolysis); settings: challenge at pH 7.6; activity of the variant/activity of Rd2BB (SEQ ID NO: 10); yeast culture supernatant
Procedure, shortened: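 GLA variants secreted from yeast INVSc1; culture supernatants pre-incubated with McIlvaine buffer pH 7.0–8.2 or 200 mM bicarbonate pH 9.1–9.7 at 37° C. for 1–18 h. Residual activity: MUGal (4 mM stock) hydrolysis at pH 4.3–4.8, 37° C., 30–180 min, carbonate quench; fluorescence Ex 355/Em 448 nm.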

[3] = HTP-analysis of supernatants pretreated with acid (MUGal hydrolysis); settings: challenge at pH 4.2; activity of the variant/activity of Rd2BB (SEQ ID NO: 10); yeast culture supernatant
Procedure, shortened: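 GLA variants were secreted from INVSc1 yeast grown 66-84 h at 30° C. in SD-Ura with 2% glucose; supernatants were mixed with McIlvaine buffer pH 3.3-4.3 and held at 37° C. for 1-3 h. Residual activity on MUGal at pH 4.8 was then measured by fluorescence.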

[4] = HTP-analysis of yeast culture supernatants, no challenge (MUGal hydrolysis); settings: activity of the variant/activity of Rd2BB (SEQ ID NO: 10), yeast culture supernatant
Procedure, shortened: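 Activity read as 4-methylumbelliferyl α-D-galactopyranoside hydrolysis: fluorescence (355/448 nm) after sodium carbonate stop, following 30-180 min at 37° C with 2 mM MUGal stock at pH 4.6–4.8. Enzyme source is unchallenged culture supernatant of INVSc1 yeast expressing GLA variants, grown 66-84 h at 30° C.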

Molecule	Relative Activity of GLA Variants After Challenge with Serum [1]	Relative Activity of GLA Variants After Challenge at pH 7.6 [2]	Relative Activity of GLA Variants After Challenge at pH 4.2 [3]	Relative Activity of GLA Variants After No Challenge (NC) [4]
243 (protein, Synthetic Polypeptide sequence of Variant No. 243 of mature Human GLA) LDNGLARTPTMGWLHWERFMCNLDCQEEPDSCISEKLFMEMAELMVSEGWKDAGYEYLCIDDCWMAPQRDSEGRLQADPQRFPHGIRQLANYVHSKGLKLGIYADVGNKTCAGFPGSFGYYDIDAQTFADWGVDLLKFDGCYCDSLENLADGYKHMSLALNRTGRSIVYSCEWPLYMWPFQKPNYTEIRQYCNHWRNFADIDDSWASIKSILDWTSFNQERIVDVAGPGGWNDPDMLVIGNFGLSWDQQVTQMALWAIMAAPLFMSNDLRHISPQAKALLQDKDVIAINQDPLGKQGYQLRKGDNFEVWERPLSGLAWAVAMINRQEIGGPRSYTIPVASLGGGVACNPGCFITQLLPVKRKLGFYEWTSRLRSHINPTGTVLLQLENTMQMSLKDLL	+++ (+++ = >2.5 relative activity over Rd2BB (SEQ ID NO: 10))	+++ (+++ = >2.5 relative activity over Rd2BB (SEQ ID NO: 10))	+++ (+++ = >2.5 relative activity over Rd2BB (SEQ ID NO: 10))	+++ (+++ = >2.5 relative activity over Rd2BB (SEQ ID NO: 10))
244 (protein, Synthetic Polypeptide sequence of Variant No. 244 of mature Human GLA) LDNGLARTPTMGWLHWERFMCNLDCQEEPDSCISEKLFMEMAELMVSEGWKDAGYEYLCIDDCWMAPQRDSEGRLQADPQRFPHGIRQLANYVHSKGLKLGIYADVGNKTCAGFPGSFGYYDIDAQTFADWGVDLLKFDGCYCDSLENLADGYKHMSLALNRTGRSIVYSCEWPLYMWPFQKPNYTEIRQYCNHWRNFADIDDSWASIKSILDWTSFNQERIVDVAGPGGWNDPDMLVIGNFGLSWDQQVTQMALWAIMAAPLFMSNDLRHISPQAKALLQDKDVIAINQDPLGKQGYQLRKGDNFEVWERPLSGDAWAVAMINRQEIGGPRSYTIAVASLGKGVACNPGCFITQLLPVKRKLGFYEWTSRLRSHINPTGTVLLQLENTMQMSLKDLL	+++ (+++ = >2.5 relative activity over Rd2BB (SEQ ID NO: 10))	+++ (+++ = >2.5 relative activity over Rd2BB (SEQ ID NO: 10))	+++ (+++ = >2.5 relative activity over Rd2BB (SEQ ID NO: 10))	+++ (+++ = >2.5 relative activity over Rd2BB (SEQ ID NO: 10))
248 (protein, Synthetic Polypeptide sequence of Variant No. 248 of mature Human GLA) LDNGLARTPTMGWLHWERFMCNLDCQEEPDSCISEKLFMEMAELMVSEGWKDAGYEYLCIDDCWMAPQRDSEGRLQADPQRFPHGIRQLANYVHSKGLKLGIYADVGNKTCAGFPGSFGYYDIDAQTFADWGVDLLKFDGCYCDSLENLADGYKHMSLALNRTGRSIVYSCEWPLYMWPFQKPNYTEIRQYCNHWRNFADIDDSWASIKSILDWTSFNQETIVDVAGPGGWNDPDMLVIGNFGLSWNQQVTQMALWAIMAAPLFMSNDLRHISPQAKALLQDKDVIAINQDPLGKQGYQLRQGDNFEVWERPLSGLAWAVAVINRQEIGGPRSYTIAVASLGGGVACNPACFITQLLPVKRKLGFYEWTSRLKSHINPTGTVLLQLENTMQMSLKDLL	+ (+ = 0.5 to 1.5 relative activity over Rd2BB (SEQ ID NO: 10))	+ (+ = 0.5 to 1.5 relative activity over Rd2BB (SEQ ID NO: 10))	+ (+ = 0.5 to 1.5 relative activity over Rd2BB (SEQ ID NO: 10))	+ (+ = 0.5 to 1.5 relative activity over Rd2BB (SEQ ID NO: 10))
247 (protein, Synthetic Polypeptide sequence of Variant No. 247 of mature Human GLA) LDNGLARTPTMGWLHWERFMCNLDCQEEPDSCISEKLFMEMAELMVSEGWKDAGYEYLCIDDCWMAPQRDSEGRLQADPQRFPHGIRQLANYVHSKGLKLGIYADVGNKTCAGFPGSFGYYDIDAQTFADWGVDLLKFDGCYCDSLENLADGYKHMSLALNRTGRSIVYSCEWPLYMWPFQKPNYTEIRQYCNHWRNFADIDDSWASIKSILDWTSFNQEKIVDVAGPGGWNDPDMLVIGNFGLSWDQQVTQMALWAIMAAPLFMSNDLRHISPQAKALLQDKDVIAINQDPLGKQGYQLRQGDNFEVWERPLSGLAWAVAVINRQEIGGPRSYTIAVASLGDGVACNPACFITQLLPVKRKLGFYEWTSRLKSHINPTGTVLLQLENTMQMSLKDLL	+++ (+++ = >2.5 relative activity over Rd2BB (SEQ ID NO: 10))	+++ (+++ = >2.5 relative activity over Rd2BB (SEQ ID NO: 10))	+++ (+++ = >2.5 relative activity over Rd2BB (SEQ ID NO: 10))	+++ (+++ = >2.5 relative activity over Rd2BB (SEQ ID NO: 10))
246 (protein, Synthetic Polypeptide sequence of Variant No. 246 of mature Human GLA) LDNGLARTPTMGWLHWERFMCNLDCQEEPDSCISEKLFMEMAELMVSEGWKDAGYEYLCIDDCWMAPQRDSEGRLQADPQRFPHGIRQLANYVHSKGLKLGIYADVGNKTCAGFPGSFGYYDIDAQTFADWGVDLLKFDGCYCDSLENLADGYKHMSLALNRTGRSIVYSCEWPLYMWPFQKPNYTEIRQYCNHWRNFADIDDSWASIKSILDWTSFNQERIVDVAGPGGWNDPDMLVIGNFGLSWNQQVTQMALWAIMAAPLFMSNDLRHISPQAKALLQDKDVIAINQDPLGKQGYQLRKGDNFEVWERPLSGDAWAVAMINRQEIGGPRSYTIPVASLGKGVACNPACFITQLLPVKRKLGFYEWTSRLRSHINPTGTVLLQLENTMQMSLKDLL	+++ (+++ = >2.5 relative activity over Rd2BB (SEQ ID NO: 10))	+++ (+++ = >2.5 relative activity over Rd2BB (SEQ ID NO: 10))	+++ (+++ = >2.5 relative activity over Rd2BB (SEQ ID NO: 10))	+++ (+++ = >2.5 relative activity over Rd2BB (SEQ ID NO: 10))
245 (protein, Synthetic Polypeptide sequence of Variant No. 245 of mature Human GLA) LDNGLARTPTMGWLHWERFMCNLDCQEEPDSCISEKLFMEMAELMVSEGWKDAGYEYLCIDDCWMAPQRDSEGRLQADPQRFPHGIRQLANYVHSKGLKLGIYADVGNKTCAGFPGSFGYYDIDAQTFADWGVDLLKFDGCYCDSLENLADGYKHMSLALNRTGRSIVYSCEWPLYMWPFQKPNYTEIRQYCNHWRNFADIDDSWASIKSILDWTSFNQERIVDVAGPGGWNDPDMLVIGNFGLSWDQQVTQMALWAIMAAPLFMSNDLRHISPQAKALLQDKDVIAINQDPLGKQGYQLRKGDNFEVWERPLSGLAWAVAVINRQEIGGPRSYTIAVASLGKGVACNPACFITQLLPVKRKLGLYEWTSRLKSHVNPTGTVLLQLENTMQMSLKDLL	++ (++ = 1.5 to 2.5 relative activity over Rd2BB (SEQ ID NO: 10))	+++ (+++ = >2.5 relative activity over Rd2BB (SEQ ID NO: 10))	+++ (+++ = >2.5 relative activity over Rd2BB (SEQ ID NO: 10))	++ (++ = 1.5 to 2.5 relative activity over Rd2BB (SEQ ID NO: 10))
